Experiment [1] deals with T1, Y. pestis YscF protein (Yersinia pestis KIM5, UniProt O68691 1-87).
T1 construct: also called YscF antigen
T1 sequence: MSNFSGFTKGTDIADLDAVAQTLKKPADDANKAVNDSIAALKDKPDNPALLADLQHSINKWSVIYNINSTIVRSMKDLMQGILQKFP
The experiment is described as follows: ELISA of periplasmic extract on YscF antigen and on blank wells, OD405.

Experiment [2] addresses T2, Y. pestis F1 protein (Yersinia pestis KIM5, UniProt P26948 22-170).
T2 construct: also called F1 antigen; Fl
The experiment can be described thus: SPR, BIACORE, F1 immobilized on CM5 chip.

The target of experiment [3] is T3, Y. pestis LcrV protein (Yersinia pestis KIM5, UniProt P0C7U7 1-326).
T3 construct: also called LcrV antigen
T3 sequence (P0C7U7 whole entry): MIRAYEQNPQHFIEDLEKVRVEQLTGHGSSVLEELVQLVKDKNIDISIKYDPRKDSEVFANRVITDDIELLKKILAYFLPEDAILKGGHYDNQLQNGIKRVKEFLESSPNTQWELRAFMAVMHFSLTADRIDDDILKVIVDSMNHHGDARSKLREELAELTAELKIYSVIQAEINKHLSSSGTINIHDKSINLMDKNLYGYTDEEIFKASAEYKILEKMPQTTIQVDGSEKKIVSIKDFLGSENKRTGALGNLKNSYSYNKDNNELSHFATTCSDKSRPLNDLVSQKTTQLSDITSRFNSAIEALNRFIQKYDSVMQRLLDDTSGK
The experiment is described as follows: SPR, BIACORE T200, LcrV on CM5 chip, 1:1 model. A general note: In SPR one partner is held on a chip, and binding of the other changes the refractive index at the surface.

For experiment [4], the target named is T3, Y. pestis LcrV protein. The experiment is described as follows: SPR, BIACORE T200, LcrV on CM5 chip, kd/ka.
Experiment [5] concerns the target T3, Y. pestis LcrV protein. The experiment is described as follows: SPR, BIACORE, LcrV immobilized on CM5 chip.
The target of experiment [6] is T3, Y. pestis LcrV protein. The experiment can be described thus: Microcal (calorimetry).
The target of experiment [7] is T2, Y. pestis F1 protein. The experiment is described as follows: Microcal (calorimetry).

24 molecules from patent US20210139565A1 (GOVERNMENT OF THE UNITED STATES AS REPRESENTED BY THE …, published 2021) can be followed below.

In general, Kd refers to the concentration at which binding is half-saturated. A high value points to weaker binding. The term koff denotes the first-order rate constant of dissociation. Read a high koff as fast dissociation. What is called kon is the rate constant with which the complex forms. High values mean faster complex formation, low ones slower complex formation.

Positions count from the first letter of the chain named.

T2 sequence (P26948 22-170 limits assumed): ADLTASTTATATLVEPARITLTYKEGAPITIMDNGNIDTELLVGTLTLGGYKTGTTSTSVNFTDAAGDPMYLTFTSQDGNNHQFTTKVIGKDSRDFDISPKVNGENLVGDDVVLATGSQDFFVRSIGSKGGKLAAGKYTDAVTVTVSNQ

B1: 3yscf15 (VHH)
VHH: QVQLQESGGGLVQAGGSLRLSCAVSGRTFSRYAMGWFRQAPGKEREFVAAISWSGSSTYYADSVKGRFTISRDHAKNVMYLQMNGLKPEDTGVYVCARPAYGLRPPYNYRGQGTQVTVSS
With B1, the binding result in experiment [1] is reported as “binds”.

B2: 3F59 (VHH)
VHH: QVQLQESGGGLVQPGGSLRLSCAASGFTFSSYAMSWVRLAPGKGLEWVSTINIAGGITSYADSVKGRFTISRDNAKNTLYLQMNSLKPEDTAVYYCAKTAANWSAQRGQGTQVTVSS
In experiment [2], B2 showed a Kd of 5.9 nM. In other words, the single-digit nanomolar range.

B3: 2LCRV11 (VHH)
VHH: QVQLQESGGGLVQPGGSTRLSCAASGFTLDIYAIGWFRQAPGKEHEGVSWIVGNDGRTYYIDSVKGRFTISRDNAKNTVYLEMNSLKPEDTAVYYCAAKFWPRYYSGRPPVGRDGYDYWGQGTQVTVSS
In the case of B3, in experiment [3], the koff was found to be 0.0072 s⁻¹ and the kon was found to be 880000 M⁻¹ s⁻¹. The affinity in experiment [4], expressed as Kd, was 8.2 nM. The same molecule came in with a Kd in experiment [5] of 8.2 nM.

B4: 1LCRV31 (VHH)
VHH: QVQLQESGGGLVQPGGSLGLSCAASGSLLNIYAMGWYRQAPGRQRELVATVTSSGTAEYADSVKGRFTISRDNAKNTVYLQMNSLRPEDTGVYYCNAHLRYGDYVRGPPEYNYWGQGTQVTVSS
Consider B4, for which the Kd turned out to be 0.76 nM in experiment [6], 0.0019 nM in experiment [4] and 0.0019 nM in experiment [5]. Also, the koff in experiment [3] was 3.1e-07 s⁻¹. Moreover, in experiment [3], the kon came to 170000 M⁻¹ s⁻¹.

B5: 3yscf24 (VHH)
VHH: QVQLQESGGGLVQAGGSLKLSCTASQRTFSRYSLGWFRQAPGEERVFVAATTWSGISSDYADSVKGRFTISRDNAKNTGYLQMNNLKPEDTGVYYCAAGRSSWFAPWLTPYEYDYWGRGTQVTVSS
On to B5, for which the binding result in experiment [1] is on record as “binds”.

B6: 3yscf124 (VHH)
VHH: QVQLQESGGGLVQAGGSLRLSCVASGRAFSNYAMAWFRQAPGKEREFVAANWRSGGLTDYADSVKGRFTISRDDAKNTVYLQMNSLKPEDTAVYYCAAGGGSRWYGRTTASWYDYWGQGTQVTVSS
Turning to B6, the binding result in experiment [1] is on record as “binds”.

B7: 3yscf57 (VHH)
VHH: QVQLQESGGGLVQAGGSLRLSCAASGRTWRAYYMGWFRQAPGKEREFVAVMSRSGGTTSYADSVKGRFTISRDNAKNTVYLQMNNLAPEDTATYYCKAGGGMYGPDLYGMTYWGKGTQVTVSS
For B7, the binding result in experiment [1] is on record as “binds”.

B8: 4F1 (VHH)
VHH: QVQLQESGGGLVQPGGSLSLSCSASGIIFSDYALTWYRQAPGKQREWVAQITRSQNINYTGSVKGRFTVSRDNAKNTVHLQMNSLKPEDTAVYYCHAYDGRRPPYWGQGTQVTVSS
Regarding B8, in experiment [2], the Kd amounted to 520 nM. That is a sub-micromolar value.

B9: 4F6 (VHH)
VHH: B8 VHH with L11S, P103R, P104T
B9: the Kd in experiment [7] was 80 nM; in experiment [2], 34 nM.

B10: 4F34 (VHH)
VHH: B8 VHH with L11S
For the molecule B10, the Kd in experiment [2] is 390 nM.

B11: 3F61 (VHH)
VHH: B8 VHH with S19R, T90A
Consider B11, for which the Kd in experiment [7] is 290 nM; in experiment [2], 68 nM.

B12: 1LCRV32 (VHH)
VHH: QVQLQESGGGMVEPGGSLRLSCAASGFRFSSYAMSWVRQAPGKGLERVSAINSDGDKTSYADSVKGRFTISRDNARNTLYLQMSNLKPEDTAVYYCADRDLYCSGSMCKDVLGGARYDFRGQGTQVTVSS
Regarding B12, the figures for the Kd in experiment [6], in experiment [4] and in experiment [5] were 26 nM, 22 nM and 22 nM, respectively. Further, in experiment [3], the koff was found to be 0.0073 s⁻¹. The molecule further came in with a kon in experiment [3] of 340000 M⁻¹ s⁻¹.

B13: 3yscf75 (VHH)
VHH: QVQLQESGGGLVQAGDSRILSCTASGRTFGRPFRYTMGWFRRAPGKEREFVGGITRSGNNIYYSDSVKGRFTISRDNAKNTVYLQMNSLKPEDTAVYYCNADWGWRNYWGQGTQVTVSS
On to B13, for which the binding result in experiment [1] is “binds”.

B14: 3yscf142 (VHH)
VHH: QVQLQESGGGLVQAGGSLRLSCAASGRTFSSHAMAWFRQGPGEERQFLAAIRWNGDNIHYSDSAKGRFTISRDLAKNTLYLQMNSLKPEDTAVYYCARGVYDYWGQGTQVTVSS
Turning to B14, the binding result in experiment [1] is listed as “binds”.

B15: 3F55 (VHH)
VHH: QVQLQESGGGLVQAGGSLRLSCAVSGMMYIREAIRWYRQAPGKQREWVAFVSSTGNPRYTDSVKGRFTISRDNAKNTVYLQMNSLTPEDTAVYYCNTYLGSRDYWGQGTQVTVSS
As for B15, the Kd in experiment [7] stood at 190 nM; in experiment [2] it was 2.2 nM.

B16: 3F85 (VHH)
VHH: B15 VHH with A14P, E32Y, A33T, I34M, F50V, R58H, T60A
For the molecule B16, the values for the Kd in experiment [7] and in experiment [2] were 110 nM and 15 nM, respectively.

B17: 1LCRV28 (VHH)
VHH: QVQLQESGGGLVQPGGSLRLSCAASGGTLGYYAIGWFRQAPGKEREAVSCITSSDTSAYYADSAKGRFTISRDNAKNTMYLQMNNLKPEDTAVYYCAAGYYFRDYSDSYYYTGTGMKVWGKGTQVTVSS
As to B17, the values for the Kd in experiment [6], in experiment [4] and in experiment [5] were 0.2 nM, 0.19 nM and 0.19 nM, respectively. In experiment [3], this molecule registered a koff of 8.1e-05 s⁻¹. Moreover, the kon in experiment [3] turned out to be 430000 M⁻¹ s⁻¹.

B18: 1LCRV47 (VHH)
VHH: QVQLQESGGGLVQPGGSLILSCTISGASLRDRRVTWSRQGPGKSLEIIAVMAPDYGVHYFGSLEGRVAVRGDVVKNTVYLQVNALKPEDTAIYWCSMGNIRGLGTQVTVSS
Regarding B18, in experiment [5], the Kd is more than 1000 nM.

B19: 3yscf140 (VHH)
VHH: QVQLQESGGGLVQAGGSLRLACAASGETVDDLAIGWFRQAPGKEREEISCISGSDGSTYYADSLSGRFTISRDNVKNTVYLQMNSLKLEDTAVYYCYAEIYDRRWYRNDYWGQGTQVTVSS
Regarding B19, the binding result in experiment [1] was “binds”.

B20: 3F5 (VHH)
VHH: QVQLQESGGGLVQSGDSLRLSCAASGFTFSNYAMSWVRQAPGKGLEWVSTINSGGGSTSYAYSVKGRFTISRDNAKNTLYLQMNSLKPEDTAVYYCAKTASHIPLSQGTQVTVSS
Consider B20, for which the Kd amounted to 83 nM in experiment [7] and 47 nM in experiment [2].

B21: 4F59 (VHH)
VHH: QVQLQESGGGLVRPGGSLRLSCEASGTTFRSLVMKWYRQAPGKEREWVAFISSPGDRTRYTEAVKGRFTISRDNAKNALYLQMNGLKPEDTAVYYCNANGIYWGKGTQVTVSS
Consider B21, for which the Kd in experiment [7] was found to be 83 nM; in experiment [2], 27 nM.

B22: 3F1 (VHH)
VHH: QVQLQESGGGLVQPGGSLRLSCAASGFTFSTSAMSWIRQPPGKAREVVATITSAGGSISYVNSVKGRFTISRDNAKNTLYLQMNMLKPEDTAVYYCARLVNLAQTGQGTQVTVSS
As for B22, the Kd in experiment [7] is 110 nM; in experiment [2] it was 97 nM.

B23: 1LCRV13 (VHH)
VHH: QVQLQESGGGLVRPGGSLKLSCAASGFTFNWYTMAWYRQVPGEERKMVATITGASGDTKYADSVKGRFTISRDNAKNTVTLQMNSLKPGDTAVYYCHAYLTYDSGSVKGVNYWGQGTQVTVSS
Consider B23, for which the Kd in experiment [6] is 3.2 nM; in experiment [4], 0.00063 nM; in experiment [5] it was 0.00063 nM. This molecule registered a koff in experiment [3] of 1.6e-07 s⁻¹. Also, the kon in experiment [3] is 250000 M⁻¹ s⁻¹.

B24: 1LCRV81 (VHH)
VHH: B23 VHH with L11S, R13Q, F68S, Y99C
In experiment [3], B24 had a koff of 0.00063 s⁻¹ and a kon of 180000 M⁻¹ s⁻¹. In experiment [4], binding was put at a Kd of 3.5 nM. In experiment [5], this molecule returned a Kd of 3.5 nM.
